Assay results: patent US20240002497A1 (Merck Sharp & Dohme, published 2024)
Substitutions are numbered along the chain they refer to. In names and notes the source's numbering stands. Where two headings read alike, the source gives them in different places. Values belong to the binder of their own block, whether it stands above or below them.

Key:
rhNav1.7α+β1-β2-β3 [1] = molecular target: T1, rhNav1.7α+β1-β2-β3 (rhesus monkey α subunit with human β …); experiment: binding FACS, CHO FlpIn cells
T1 construct: P2A cleaves it into α, β1, β2, β3; also called rhNav1.7-beta1-beta2-beta3

huNav1.7α [2] = molecular target: T2, huNav1.7α (human, UniProt Q15858 1-1988); experiment: binding FACS, HEKa cells
T2 construct: HEK cells expressing the α subunit alone; also called HEKa; HEK huNav1.7α

rhNav1.7α+β1-β2-β3 [3] = molecular target: T1, rhNav1.7α+β1-β2-β3; experiment: cell-based or functional assay
huNav1.7α [4] = molecular target: T2, huNav1.7α; experiment: cell-based or functional assay
huNav1.7α+β1 [5] = molecular target: T3, huNav1.7α+β1 (human, UniProt Q15858 1-1988; Q07699 19-218); experiment: cell-based or functional assay
rhNav1.7α = rhNav1.7α (rhesus monkey, UniProt Q15858 1-1988 (human entry)); experiment: cell-based or functional assay
huNav1.7α+β1 [6] = molecular target: T3, huNav1.7α+β1; experiment: binding FACS, HEKa/β1 cells
huNav157chim14 = molecular target: T4, huNav157chim14 (human); experiment: binding FACS, HEK Flp-In
T4 construct: HEK Flp-In cells; also called huNav157 chimera 14

huNav1.7α [7] = molecular target: T5, huNav1.7α (human, UniProt Q15858 1-1988); experiment: binding FACS, HEK
T5 construct: HEK cells expressing the α subunit without β subunits; also called huNav1.7 (alpha-subunit); Human Nav1.7α

huNav1.7α + β1 [8] = molecular target: T6, huNav1.7α + β1 (human); experiment: binding FACS, HEK
T6 construct: HEK293 cells; also called huNav1.7-beta1; huNav1.7-β1

rhNav1.7α + β1-β2-β3 = molecular target: T7, rhNav1.7α + β1-β2-β3 (rhesus monkey); experiment: competition FACS vs EC40 of F103275B05(N93R), CHO FlpIn
T7 construct: also called rhNav1.7-beta1-beta2-beta3; rhNav1.7-β1-β2-β3

huNav1.7α + β1-β2-β3 [9] = molecular target: T8, huNav1.7α + β1-β2-β3 (human, UniProt Q15858 1-1988; A5A6L6 19-218; O60939 30-215; Q2KI11 23-215); experiment: competition FACS vs EC25 of F103275B05(N93R), CHO FlpIn
T8 construct: also called huNav1.7-beta1-beta2-beta3; huNav1.7-β1-β2-β3

huNav1.7α + β1-β2-β3 [10] = molecular target: T8, huNav1.7α + β1-β2-β3; experiment: competition FACS vs EC25 of F103275B05(N93R), HEK FlpIn
huNav1.7α [11] = molecular target: T5, huNav1.7α; experiment: competition FACS vs EC25 of F103275B05(N93R), HEK
huNav1.7α + β1 [12] = molecular target: T6, huNav1.7α + β1; experiment: competition FACS vs EC25 of F103275B05(N93R), HEK
huNav1.7α+β1-β2-β3 = molecular target: T9, huNav1.7α+β1-β2-β3 (human, UniProt Q15858 1-1988; Q07699 19-218; O60939 30-215; Q9NY72 23-215); experiment: binding FACS, HEK FlpIn cells
T9 construct: 5N11S variant; also called huNav1.7-beta1-beta2-beta3; huNav1.7α+Navβ1-Navβ2-Navβ3

huNav1.7α+β1 [13] = molecular target: T3, huNav1.7α+β1; experiment: binding FACS, HEKa/β1 cells; remark: listed apart in the source
Method in brief: (§1)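 Flow cytometry read-out of anti-Flag signal on propidium iodide-negative cells measured ISVD binding. Purified FLAG3-tagged ISVD, diluted in PBS with 10% FBS and NaN₃, was applied to the cells for 30 minutes at 4° C.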

huNav1.7α [14] = molecular target: T2, huNav1.7α; experiment: binding FACS, HEKa cells; remark: listed apart in the source
Method in brief: as §1

B4: F0103275B05-FLAG3 + HIS6 (VHH)
VHH: EVQLVESGGGLVQPGGSLRLSCAASGSIFNINSMAWYRRAPGKQRELVASSTNGGSTNYADSVKGRFTISRDNAKRVYLQMNSLTPEDTAVYYCNALLQPSIYDISRTYWGQGTLVTVSS
notes: also called F0103275B05 (parental)-FLAG-HIS6
EC50 (huNav1.7α [7]): 13 nM
EC50 (huNav1.7α + β1 [8]): 13 nM

B8: F010300191 (bispecific antibody)
chain: EVQLVESGGGLVQPGGSLRLSCAASGSIFNINSMAWYRRAPGKQRELVASSTNGGSTNYADSVKGRFTISRDNAKRVYLQMNSLTPEDTAVYYCNALLQPSIYDISRTYWGQGTLVTVSSGGGGSGGGGSGGGGSGGGGSGGGGSGGGGSGGGGSGGGGSGGGGSGGGGSEVQLVESGGGLVQAGGSLRLSCAASGGTGRRYAMGWFRQAPGKEREIVAAIRWSAMTYYADDGKGRFTISRDNAKNTVYLQMNSLKPEDTAIYYCAYTWDYFKYDQVRAYRGWGQGTLVTVSSGAADYKDHDGDYKDHDIDYKDDDDKGAAHHHHHH
notes: also called F0103275B05-50GS-F0103240B04-FLAG3-HIS6
IC50 (huNav1.7α + β1-β2-β3 [10]): 0.1 nM
IC50 (huNav1.7α [11]): 67 nM
IC50 (huNav1.7α + β1 [12]): 110 nM

B9: F010300534 (VHH)
VHH: EVQLVESGGGLVQPGGSLRLSCAASGMLFNANTQGWYRQAPGKQRELVAFIFSGGYVNYVDSVKGRFTISRDNAKRTMYLQMNSLKPEDSAIYYCSLSRYLGQGTLVTVSS
notes: vs F0103265A11: T57V
EC50 (huNav1.7α+β1-β2-β3): 72 nM
Bmax relative to '535 (huNav1.7α+β1 [13]): 62%
EC50 (huNav1.7α+β1 [13]): 11 nM
binding result (huNav1.7α [14]): no binding

B10: F010300535 (VHH)
VHH: B9 VHH with S53W, V57T
notes: vs F0103265A11: S53W
EC50 (huNav1.7α+β1-β2-β3): 16 nM
Bmax relative to '535 (huNav1.7α+β1 [13]): 100%
EC50 (huNav1.7α+β1 [13]): 5.5 nM
EC50 (huNav1.7α [14]): 720 nM

B12: F010300536 (VHH)
VHH: B9 VHH with V57T, N58T
notes: vs F0103265A11: N58T
EC50 (huNav1.7α+β1-β2-β3): 27 nM
Bmax relative to '535 (huNav1.7α+β1 [13]): 77%
EC50 (huNav1.7α+β1 [13]): 9 nM
EC50 (huNav1.7α [14]): 660 nM

Continued, values first:

EC50 (rhNav1.7α+β1-β2-β3 [1]): 55 nM
EC50 (huNav1.7α [2]): 9.7 nM
single pulse IC50 (rhNav1.7α+β1-β2-β3 [3]): 180 nM
2-pulse IC50 [M], P1 (huNav1.7α [4]): 1e-06 M
2-pulse IC50 [M], P2 (huNav1.7α [4]): 8e-07 M
single pulse IC50 (huNav1.7α+β1 [5]): 85 nM
2-pulse IC50 [M], P1 (rhNav1.7α): 1e-06 M
2-pulse IC50 [M], P2 (rhNav1.7α): 7e-07 M
EC50 (huNav1.7α+β1 [6]): 27 nM
B1: F010300659 (VHH)
VHH: B4 VHH with S27P, I28V, S50Y, N53P, G55W, S56D, T57W, N95R, A96W
notes: also called F0103275B05(S27P, I28V, S50Y, N53P, G55W, S56D, T57W, N93R, A94W)+FLAG3-HIS6

MFI (huNav157chim14): 27700 MFI
B2: F010300702 (bispecific antibody, V domains shown, not shown: small tags and cut ends)
VH: B4 VHH with N95R
notes: also called F010300702 (n = 15); control bivalent ISVD

EC50 (rhNav1.7α+β1-β2-β3 [1]): 20 nM
EC50 (huNav1.7α [2]): 69 nM
single pulse IC50 (rhNav1.7α+β1-β2-β3 [3]): 58 nM
single pulse IC50 (huNav1.7α+β1 [5]): 320 nM
EC50 (huNav1.7α+β1 [6]): 68 nM
B3: F010300948 (VHH)
VHH: B4 VHH with S27P, I28V, S33R, N53P, N95R, A96W, T108I
notes: vs F0103275B05: S27P, I28V, S33R, N53P, N93R, A94W, T101I

EC50 (rhNav1.7α+β1-β2-β3 [1]): 38 nM
EC50 (huNav1.7α [2]): 4.3 nM
single pulse IC50 (rhNav1.7α+β1-β2-β3 [3]): 100 nM
single pulse IC50 (huNav1.7α+β1 [5]): 250 nM
EC50 (huNav1.7α+β1 [6]): 65 nM
B5: F010300990 (VHH)
VHH: B4 VHH with S27P, I28V, S33R, S50Y, N53P, T108I
notes: vs F0103275B05: S27P, I28V, S33R, S50Y, N53P, T101I

EC50 (rhNav1.7α+β1-β2-β3 [1]): 25 nM
EC50 (huNav1.7α [2]): 20 nM
single pulse IC50 (rhNav1.7α+β1-β2-β3 [3]): 36 nM
single pulse IC50 (huNav1.7α+β1 [5]): 200 nM
EC50 (huNav1.7α+β1 [6]): 70 nM
B6: F010300900 (VHH)
VHH: B4 VHH with S27P, I28V, S33R, N53P, S56D, N95R, A96W, T108I
notes: vs F0103275B05: S27P, I28V, S33R, N53P, S56D, N93R, A94W, T101I

IC50 (rhNav1.7α + β1-β2-β3): 2 nM
IC50 (huNav1.7α + β1-β2-β3 [9]): 8.1 nM
IC50 (huNav1.7α + β1-β2-β3 [10]): 8.7 nM
IC50 (huNav1.7α [11]): 67 nM
IC50 (huNav1.7α + β1 [12]): 110 nM
B7: F010302380 (bispecific antibody)
chain: DVQLVESGGGLVQPGGSLRLSCAASGSIFNINSMAWYRRAPGKQRELVASSTNGGSTNYADSVKGRFTISRDNAKRVYLQMNSLTPEDTAVYYCRALLQPSIYDISRTYWGQGTLVTVSSGGGGSGGGGSGGGGSGGGGSGGGGSGGGGSGGGGSGGGGSGGGGSGGGGSEVQLVESGGGLVQAGGSLRLSCVTSGRTSDLSTMNWFRQAPGKEREFVARITRRGSTYYAESVKERFIISRDNAKNTVYLQMNSLKPEDTANYYCTAASEMGYHYRGQGTQVTVSSGAADYKDHDGDYKDHDIDYKDDDDKGAAHHHHHH
notes: also called F0103275B05(E1D, N93R)-50GS-F0103505D08(L108Q)-FLAG3-HIS6

EC50 (huNav1.7α+β1-β2-β3): 4.1 nM
Bmax relative to '535 (huNav1.7α+β1 [13]): 120%
EC50 (huNav1.7α+β1 [13]): 2.2 nM
B11: F010301458 (VHH)
VHH: B9 VHH with A31R, Y56W, V57T, V60N, S96A, L101Q
notes: vs F0103265A11: A31R, Y56W, V60N, S93A, L103Q

EC50 (huNav1.7α+β1-β2-β3): 4.3 nM
Bmax relative to '535 (huNav1.7α+β1 [13]): 120%
EC50 (huNav1.7α+β1 [13]): 2.5 nM
B13: F010301463 (VHH)
VHH: B9 VHH with A31R, V57T, V60N, S96A, L101Q
notes: vs F0103265A11: A31R, V60N, S93A, L103Q
